Tests used:
Test in all cases: PEPSCAN ELISA, looped peptide, 10 ug/ml
[1] = biological target: looped/cyclic peptide … (rabies virus strain ERA)
[2] = biological target: looped/cyclic peptide … (rabies virus strain ERA); remark: listed apart in the source
[3] = biological target: looped/cyclic peptide … (rabies virus strain ERA); remark: listed apart in the source
[4] = biological target: looped/cyclic peptide … (rabies virus strain ERA); remark: listed apart in the source
[5] = biological target: looped/cyclic peptide … (rabies virus strain ERA); remark: listed apart in the source
[6] = biological target: looped/cyclic peptide … (rabies virus strain ERA); remark: listed apart in the source
[7] = biological target: looped/cyclic peptide … (rabies virus strain ERA); remark: listed apart in the source
[8] = biological target: looped/cyclic peptide … (rabies virus strain ERA); remark: listed apart in the source
[9] = biological target: looped/cyclic peptide … (rabies virus strain ERA); remark: listed apart in the source
[10] = biological target: looped/cyclic peptide … (rabies virus strain ERA); remark: listed apart in the source
[11] = biological target: looped/cyclic peptide … (rabies virus strain ERA); remark: listed apart in the source
[12] = biological target: looped/cyclic peptide … (rabies virus strain ERA); remark: listed apart in the source
[13] = biological target: looped/cyclic peptide … (rabies virus strain ERA); remark: listed apart in the source
[14] = biological target: looped/cyclic peptide … (rabies virus strain ERA); remark: listed apart in the source
[15] = biological target: looped/cyclic peptide … (rabies virus strain ERA); remark: listed apart in the source
[16] = biological target: looped/cyclic peptide … (rabies virus strain ERA); remark: listed apart in the source
[17] = biological target: looped/cyclic peptide … (rabies virus strain ERA); remark: listed apart in the source
[18] = biological target: looped/cyclic peptide … (rabies virus strain ERA); remark: listed apart in the source
[19] = biological target: looped/cyclic peptide … (rabies virus strain ERA); remark: listed apart in the source
[20] = biological target: looped/cyclic peptide … (rabies virus strain ERA); remark: listed apart in the source
[21] = biological target: looped/cyclic peptide … (rabies virus strain ERA); remark: listed apart in the source
[22] = biological target: looped/cyclic peptide … (rabies virus strain ERA); remark: listed apart in the source
[23] = biological target: looped/cyclic peptide … (rabies virus strain ERA); remark: listed apart in the source
[24] = biological target: looped/cyclic peptide … (rabies virus strain ERA); remark: listed apart in the source
[25] = biological target: looped/cyclic peptide … (rabies virus strain ERA); remark: listed apart in the source
[26] = biological target: looped/cyclic peptide … (rabies virus strain ERA); remark: listed apart in the source
[27] = biological target: looped/cyclic peptide … (rabies virus strain ERA); remark: listed apart in the source
[28] = biological target: looped/cyclic peptide … (rabies virus strain ERA); remark: listed apart in the source
[29] = biological target: looped/cyclic peptide … (rabies virus strain ERA); remark: listed apart in the source
[30] = biological target: looped/cyclic peptide … (rabies virus strain ERA); remark: listed apart in the source
[31] = biological target: looped/cyclic peptide … (rabies virus strain ERA); remark: listed apart in the source
[32] = biological target: looped/cyclic peptide … (rabies virus strain ERA); remark: listed apart in the source
[33] = biological target: looped/cyclic peptide … (rabies virus strain ERA); remark: listed apart in the source
[34] = biological target: looped/cyclic peptide … (rabies virus strain ERA); remark: listed apart in the source
[35] = biological target: looped/cyclic peptide … (rabies virus strain ERA); remark: listed apart in the source
[36] = biological target: looped/cyclic peptide … (rabies virus strain ERA); remark: listed apart in the source
[37] = biological target: looped/cyclic peptide … (rabies virus strain ERA); remark: listed apart in the source
[38] = biological target: looped/cyclic peptide … (rabies virus strain ERA); remark: listed apart in the source
[39] = biological target: looped/cyclic peptide … (rabies virus strain ERA); remark: listed apart in the source
[40] = biological target: looped/cyclic peptide … (rabies virus strain ERA); remark: listed apart in the source
[41] = biological target: looped/cyclic peptide … (rabies virus strain ERA); remark: listed apart in the source
[42] = biological target: looped/cyclic peptide … (rabies virus strain ERA); remark: listed apart in the source
[43] = biological target: looped/cyclic peptide … (rabies virus strain ERA); remark: listed apart in the source
[44] = biological target: looped/cyclic peptide … (rabies virus strain ERA); remark: listed apart in the source
[45] = biological target: looped/cyclic peptide … (rabies virus strain ERA); remark: listed apart in the source
[46] = biological target: looped/cyclic peptide … (rabies virus strain ERA); remark: listed apart in the source
[47] = biological target: looped/cyclic peptide … (rabies virus strain ERA); remark: listed apart in the source
[48] = biological target: looped/cyclic peptide … (rabies virus strain ERA); remark: listed apart in the source
[49] = biological target: looped/cyclic peptide … (rabies virus strain ERA); remark: listed apart in the source
[50] = biological target: looped/cyclic peptide … (rabies virus strain ERA); remark: listed apart in the source
[51] = biological target: looped/cyclic peptide … (rabies virus strain ERA); remark: listed apart in the source
[52] = biological target: looped/cyclic peptide … (rabies virus strain ERA); remark: listed apart in the source
[53] = biological target: looped/cyclic peptide … (rabies virus strain ERA); remark: listed apart in the source
[54] = biological target: looped/cyclic peptide … (rabies virus strain ERA); remark: listed apart in the source
[55] = biological target: looped/cyclic peptide … (rabies virus strain ERA); remark: listed apart in the source
[56] = biological target: looped/cyclic peptide … (rabies virus strain ERA); remark: listed apart in the source
[57] = biological target: looped/cyclic peptide … (rabies virus strain ERA); remark: listed apart in the source
[58] = biological target: looped/cyclic peptide … (rabies virus strain ERA); remark: listed apart in the source
[59] = biological target: looped/cyclic peptide … (rabies virus strain ERA); remark: listed apart in the source
[60] = biological target: looped/cyclic peptide … (rabies virus strain ERA); remark: listed apart in the source
[61] = biological target: looped/cyclic peptide ADPSTVFKDGDEAED (rabies virus strain ERA)

B1: human monoclonal antibody CRJB (antibody, V domains shown)
VH: QITLKETGPTLVKPTQTLTLTCTFSGFSLSTSGVGVGWIRQPPGKALEWVTLIYWDDDKRYSPSLENRVTIRKDTSKNQVALTMTNMDPLDTGTYYCAHRQHISSFPWFDSWGQGTLVTVSS
VL: SYVLTQPPSVSVAPGKTARINCGGNNIEYRSVHWYQQKSGQAPVAVIYDNSDRPSGIPERFSGSKSGNTATLTISRVEAGDEADYYCQVWDISSDVVFGGGTKLTVLG
OD [1]: 99 OD
OD [2]: 99 OD
OD [3]: 113 OD
OD [4]: 97 OD
OD [5]: 79 OD
OD [6]: 91 OD
OD [7]: 97 OD
OD [8]: 94 OD
OD [9]: 91 OD
OD [10]: 100 OD
OD [11]: 112 OD
OD [12]: 100 OD
OD [13]: 86 OD
OD [14]: 71 OD
OD [15]: 92 OD
OD [16]: 83 OD
OD [17]: 104 OD
OD [18]: 107 OD
OD [19]: 134 OD
OD [20]: 98 OD
OD [21]: 90 OD
OD [22]: 101 OD
OD [23]: 113 OD
OD [24]: 98 OD
OD [25]: 82 OD
OD [26]: 93 OD
OD [27]: 129 OD
OD [28]: 93 OD
OD [29]: 58 OD
OD [30]: 64 OD
OD [31]: 79 OD
OD [32]: 104 OD
OD [33]: 92 OD
OD [34]: 92 OD
OD [35]: 100 OD
OD [36]: 104 OD
OD [37]: 90 OD
OD [38]: 85 OD
OD [39]: 78 OD
OD [40]: 93 OD
OD [41]: 85 OD
OD [42]: 118 OD
OD [43]: 93 OD
OD [44]: 89 OD
OD [45]: 85 OD
OD [46]: 87 OD
OD [47]: 87 OD
OD [48]: 103 OD
OD [49]: 104 OD
OD [50]: 90 OD
OD [51]: 97 OD
OD [52]: 93 OD
OD [53]: 103 OD
OD [54]: 83 OD
OD [55]: 123 OD
OD [56]: 92 OD
OD [57]: 100 OD
OD [58]: 85 OD
OD [59]: 116 OD
OD [60]: 102 OD
OD [61]: 72 OD

Reference: patent US20060263802A1 (CRUCELL HOLLAND B V, published 2006)
